Results on 13 molecules are retold here after patent publication US20010010923A1, “MODIFIED CARBOXYPEPTIDASE” (priority 1997, published 2001).

Numbering of substitutions follows the chain as printed. Names may count otherwise.

Common to all, as to assay type: biochemical
Assay [1] can be described thus: Transpeptidation of Bz-G-A-R-A-R-X-OH at pH 7.5 at 50% substrate consumption, Table 4. Further details: key to fa: fraction: aminolysis product / sum of all products formed. To be noted: for Pmax (peak product yield) / fa: 375 mM H-Leu-NH2; for fa / t: 50% substrate consumption; for t: 375 mM H-Leu-NH2, 2 mM substrate, [E] 0.1 mg/mL. How it is done: Transamidation reactions were carried out generally as described in PCT Application WO 95/20039. In general, the method included dissolving the nucleophile (H-Leu-NH2, unless otherwise indicated) in 50 mM HEPES, 5 mM EDTA and adjusting the pH to 7.5, 5 μl of peptide substrate (8 mM Bz-G-A-R-A-R-A-OH, unless otherwise indicated, in methanol) was added to 190 μl nucleophile solution followed by 5 μl enzyme, resulting in a substrate concentration of 0.2 mM.
(§1) During the reaction, 20 μl aliquots were removed from the reaction mixture and added to 50 μl 1% trifluoroacetic acid to quench the reaction. The reactant composition was determined by HPLC using a Waters HPLC equipped with a C-18 Waters Novapac 4μ reverse phase column and various gradients of acetonitrile in 0.1% trifluoroacetic acid. The separation was monitored at 254 nm allowing the direct quantification of the products from the integrated peak areas. The composition of the reaction mixture was determined at least twvice during the reaction, the first when 20-50% (preferably 35%) of the substrate had been consumed in the reaction and the second time when 50-90% (preferably 80%) of the peptide substrate had been consumed.
(§2) The fraction of aminolysis (fa) was expressed as the ratio between the formed aminolysis product and the sum of all products formed. Unconsumed substrate was disregarded in the calculations.
Site specific mutagenesis was performed as described for Example 1 to generate the specific mutants described below. Transamidation reactions were performed as described for Examples 1.

The nature of assay [2]: Transamidation of FA-Arg-Ala-OH, Table 6. The note with it: H-Leu-NH2 375 mM, pH 7.5, [E] 0.1 mg/mL.
A short description of assay [3]: Transamidation of Bz-G-A-R-A-R-A-OH, Table 6. To be noted: [S] = 2 mM; H-Leu-NH2 375 mM; pH 7.5; [E] 0.1 mg/mL.
The nature of assay [4]: Transpeptidation of Bz-G-A-R-A-R-X-OH at pH 6.5 at 50% substrate consumption, Table 5. Further details: key to fa: fa = aminolysis product / sum of all products formed. The note with it: for Pmax (peak product yield) / fa: 750 mM H-Leu-NH2; for fa / t: 50% substrate consumption; for t: 750 mM H-Leu-NH2, 2 mM substrate, [E] 0.1 mg/mL. As for the experimental part: Transamidation reactions were carried out generally as described in PCT Application WO 95/20039. In general, the method included dissolving the nucleophile (H-Leu-NH2, unless otherwise indicated) in 50 mM HEPES, […], 5 μl of peptide substrate (8 mM Bz-G-A-R-A-R-A-OH, unless otherwise indicated, in methanol) was added to 190 μl nucleophile solution followed by 5 μl enzyme, resulting in a substrate concentration of 0.2 mM.
as §1
The fraction of aminolysis (fa) was expressed as the ratio between the formed aminolysis product and the sum of all products formed. Unconsumed substrate was disregarded in the calculations. […]

Assay [5] is described as follows: Transamidation of Bz-G-A-R-A-R-A-OH, Table 6. To be noted: H-Leu-NH2 375 mM, pH 7.5, [E] 0.1 mg/mL. How it is done: (§3) Transamidation reactions were carried out generally as described in PCT Application WO 95/20039. In general, the method included dissolving the nucleophile (H-Leu-NH2, unless otherwise indicated) in 50 mM HEPES, 5 mM EDTA and adjusting the pH to 7.5, 5 μl of peptide substrate (8 mM Bz-G-A-R-A-R-A-OH, unless otherwise indicated, in methanol) was added to 190 μl nucleophile solution followed by 5 μl enzyme, […]
as §1, §2
Site specific mutagenesis was performed as described for Example 1 to generate the specific mutants described below. Transamidation reactions were performed as described in the previous examples.

Assay [6] is described as follows: Transpeptidation of Bz-G-A-R-A-R-A-OH (arginine at P1) with H-Leu-NH2, Table 1. The note with it: 2mM substrate, pH 7.5, [E] 0.1 mg/mL. As for the experimental part:
The mutant carboxypeptidase enzvmes used in these studies were produced by site-directed mutagenesis, essentially following the procedures described in published PCT Patent Application No. WO 95/20039. In general, oligonucleotides synthesized to encode the amino acid substitution were used to produce the mutant enzymes.
as §3, §1
The reaction products were collected and identified by amino acid analysis after acid hydrolysis using a Pharmacia Alpha Plus analyzer. Further identification was obtained by co-chromatography of authentic standard compounds.
as §2

B1: L178S + M398L: carboxypeptidase Y mutant L178S + M398L (S1 and S1' subsites) (protein, UniProt P00729 112-532, looked up, variant L178S M398L)
Carboxypeptidase Y: KIKDPKILGIDPNVTQYTGYLDVEDEDKHFFFWTFESRNDPAKDPVILWLNGGPGCSSLTGLFFELGPSSIGPDLKPIGNPYSWNSNATVIFLDQPVNVGFSYSGSSGVSNTVAAGKDVYNFLELFFDQFPEYVNKGQDFHIAGESYAGHYIPVFASEILSHKDRNFNLTSVLIGNGSTDPLTQYNYYEPMACGEGGEPSVLPSEECSAMEDSLERCLGLIESCYDSQSVWSCVPATIYCNNAQLAPYQRTGRNVYDIRKDCEGGNLCYPTLQDIDDYLNQDYVKEAVGAEVDHYESCNFDINRNFLFAGDWMKPYHTAVTDLLNQDLPILVYAGDKDFICNWLGNKAWTDVLPWKYDEEFASQKVRNWTASITDEVAGEVKSYKHFTYLRVFNGGHLVPFDVPENALSMVNEWIHGGFSL
For B1, the “Pmax (peak product yield)” value in assay [1] (leaving group A) is listed as more than 0.48; in assay [1] (leaving group L) it was more than 0.39; in assay [4] (leaving group A), 0.48; in assay [4] (leaving group L), 0.54. The fa in assay [1] (leaving group A) is 0.77; in assay [1] (leaving group I), 0.54; in assay [1] (leaving group L) it was 0.39; in assay [1] (leaving group M), 0.17; in assay [1] (leaving group V) it was 0.45; in assay [2] ([S] = 2 mM) it was “.99”. For the same molecule, the fa in assay [3] is recorded as 0.91; in assay [4] (leaving group A), 0.92; in assay [4] (leaving group L), 0.54. The “t” value in assay [1] (leaving group A) was 41 min; in assay [1] (leaving group I) it was 33 min; in assay [1] (leaving group L), 1 min; in assay [1] (leaving group M), 17 min; in assay [1] (leaving group V) it was 30 min; in assay [4] (leaving group A) it was 53 min. Besides, in assay [4] (leaving group L), the “t” value came out at 19 min. Besides, in assay [2] ([S] = 2 mM), the Pmax is listed as 0.90.

B2: N241D + W312F: carboxypeptidase Y mutant N241D + W312F (protein, UniProt P00729 112-532, looked up, variant N241D W312F)
Carboxypeptidase Y: B1 Carboxypeptidase Y with S178L, N241D, W312F, L398M
Turning to B2, the Pmax in assay [5] ([S] = 2 mM) was 0.17; in assay [2] ([S] = 2 mM), 0.58. Moreover, the fa in assay [2] ([S] = 2 mM) is given as 0.70; in assay [3] it was 0.24.

B3: L178D + W312N: carboxypeptidase Y combination mutant L178D + W312N (protein, UniProt P00729 112-532, looked up, variant L178D W312N)
Carboxypeptidase Y: B1 Carboxypeptidase Y with S178D, W312N, L398M
For B3, the “fa (fraction of aminolysis)” value in assay [6] ([N] 375 mM H-Leu-NH2) is 0.71.

B4: L245E + W312N: carboxypeptidase Y combination mutant L245E + W312N (protein, UniProt P00729 112-532, looked up, variant L245E W312N)
Carboxypeptidase Y: B1 Carboxypeptidase Y with S178L, L245E, W312N, L398M
Turning to B4, in assay [6] ([N] 375 mM H-Leu-NH2), the “fa (fraction of aminolysis)” value turned out to be 0.20.

B5: N241E: carboxypeptidase Y S1 mutant, substitution N241E (protein, UniProt P00729 112-532, looked up, variant N241E)
Carboxypeptidase Y: B1 Carboxypeptidase Y with S178L, N241E, L398M
For B5, the “fa (fraction of aminolysis)” value in assay [6] ([N] 50 mM H-Leu-NH2) is on record as 0.27. Also, the Pmax was 0.25 in assay [5] ([S] = 0.2 mM), 0.25 in assay [5] ([S] = 2 mM) and 0.49 in assay [2] ([S] = 0.2 mM). Besides, the fa was 0.43 in assay [5] ([S] = 0.2 mM), 0.70 in assay [2] ([S] = 0.2 mM), 0.92 in assay [2] ([S] = 2 mM) and 0.47 in assay [3].

B6: N241D: carboxypeptidase Y mutant, substitution N241D (protein, UniProt P00729 112-532, looked up, variant N241D)
Carboxypeptidase Y: B1 Carboxypeptidase Y with S178L, N241D, L398M
As to B6, the Pmax in assay [5] ([S] = 2 mM) stood at 0.09; in assay [2] ([S] = 2 mM), 0.56. Also, the values for the fa in assay [2] ([S] = 2 mM) and in assay [3] were 0.85 and 0.15, respectively.

B7: N241D + W312A: carboxypeptidase Y mutant N241D + W312A (protein, UniProt P00729 112-532, looked up, variant N241D W312A)
Carboxypeptidase Y: B1 Carboxypeptidase Y with S178L, N241D, W312A, L398M
In the case of B7, the Pmax in assay [5] ([S] = 2 mM) turned out to be 0.20; in assay [2] ([S] = 2 mM) it was 0.72. Also, the values for the fa in assay [2] ([S] = 2 mM) and in assay [3] were 0.80 and 0.28, respectively.

B8: N241D + W312L: carboxypeptidase Y mutant N241D + W312L (protein, UniProt P00729 112-532, looked up, variant N241D W312L)
Carboxypeptidase Y: B1 Carboxypeptidase Y with S178L, N241D, W312L, L398M
For the molecule B8, the Pmax came out at 0.05 in assay [5] ([S] = 2 mM) and 0.37 in assay [2] ([S] = 2 mM). Further, the fa in assay [2] ([S] = 2 mM) was determined as 0.50; in assay [3], 0.05.

B9: L245E: carboxypeptidase Y S1 mutant, substitution L245E (protein, UniProt P00729 112-532, looked up, variant L245E)
Carboxypeptidase Y: B1 Carboxypeptidase Y with S178L, L245E, L398M
For the molecule B9, the entries for the “fa (fraction of aminolysis)” value in assay [6] ([N] 50 mM H-Leu-NH2) and in assay [6] ([N] 375 mM H-Leu-NH2) were 0.07 and 0.18, respectively. Also, the values for the Pmax in assay [5] ([S] = 2 mM) and in assay [2] ([S] = 2 mM) were 0.09 and 0.73, respectively. Moreover, the fa in assay [2] ([S] = 2 mM) turned out to be 0.83; in assay [3], 0.20.

B10: L178A: carboxypeptidase Y S1 mutant, substitution L178A (protein, UniProt P00729 112-532, looked up, variant L178A)
Carboxypeptidase Y: B1 Carboxypeptidase Y with S178A, L398M
On to B10, for which the “fa (fraction of aminolysis)” value in assay [6] ([N] 375 mM H-Leu-NH2) turned out to be 0.45.

B11: L178D + W312D: carboxypeptidase Y combination mutant L178D + W312D (protein, UniProt P00729 112-532, looked up, variant L178D W312D)
Carboxypeptidase Y: B1 Carboxypeptidase Y with S178D, W312D, L398M
As for B11, in assay [6] ([N] 375 mM H-Leu-NH2), the “fa (fraction of aminolysis)” value came to 0.71.

B12: N241D + W312N: carboxypeptidase Y mutant N241D + W312N (protein, UniProt P00729 112-532, looked up, variant N241D W312N)
Carboxypeptidase Y: B1 Carboxypeptidase Y with S178L, N241D, W312N, L398M
B12: the Pmax in assay [5] ([S] = 2 mM) was determined as 0.13; in assay [2] ([S] = 2 mM), 0.58. For the same molecule, the fa in assay [2] ([S] = 2 mM) was found to be 0.74; in assay [3], 0.17.

B13: W312D: carboxypeptidase Y S1 mutant, substitution W312D (protein, UniProt P00729 112-532, looked up, variant W312D)
Carboxypeptidase Y: B1 Carboxypeptidase Y with S178L, W312D, L398M
For the molecule B13, the “fa (fraction of aminolysis)” value in assay [6] ([N] 375 mM H-Leu-NH2) was determined as 0.15. Moreover, the Pmax was determined as 0.08 in assay [5] ([S] = 2 mM) and 0.67 in assay [2] ([S] = 2 mM). For the same molecule, the fa is 0.77 in assay [2] ([S] = 2 mM) and 0.16 in assay [3].
